Laboratory results: patent US6617118B2, “Monoclonal antibody for analysis and clearance of polyethylene glycol and polyethylene glycol-modified molecules” (priority 1999, dated 2003)

Legend:
[1] = βG enzymatic activity of PEG-modified βG and conjugates; assay type: biochemical; conditions: purified by gel filtration, 9.2 sPEG groups/βG subunit
[2] = 150 μg i.v., after a period of rapid clearance
Procedure: Pharmacokinetics of βG-pPEG: Male BALB/c mice were i.v injected with 150 μg βG-pPEG. Serum was isolated from blood samples that were periodically removed from the tail vein of the mice. The concentration of βG-pPEG in serially-diluted serum samples was assayed in triplicate by the AGP3 ELISA. The concentration of βG-pPEG was determined by comparison to a standard curve generated with known concentrations of βG-pPEG.
A sandwich ELISA was developed in which AGP3 was employed for the capture step and AGP3-biotin used for detection. […] Binding of βG-pPEG to the immobilized AGP3 was detected by sequential addition of AGP3-biotin and streptavidin-HRP. Results represent mean values of triplicate determinations. Bars indicate the standard error of the mean. […] The effect of serum on the ELISA was examined by adding 10% mouse serum to samples before assay. […] The AGP3 ELISA was employed to measure the pharmacokinetics of βG-pPEG in mice. In FIG. 7, a BALB/c mouse was i.v. injected with 150 μg βG-pPEG. Blood samples were periodically removed from the tail vein and assayed for βG-pPEG concentration by ELISA.

immobilized AGP3 = experiment: AGP3 sandwich ELISA (AGP3 capture, AGP3-biotin detection); assay type: binding; conditions: unmodified protein in PBS
Procedure: AGP3 ELISA: Maxisorp™ 96-well microplates (Nunc™, Roskilde, Denmark) were coated with 50 μL/well of AGP3 (200 μg/ml in PBS) for 3 h at 37° C. Plates were blocked with 2% skim milk in PBS overnight and washed twice with PBS/T (0.05% Tween-20 in PBS) before serial dilutions of βG or βG-pPEG (50 μL in dilution buffer) were added to wells for 1.5 h at room temperature. Plates were washed 6 times with PBS/T and 50 μL/well AGP3-biotin (20 μg/ml in dilution buffer) was added for 1.5 h at room temperature. Plates were again washed with PBS/T and 50 μL/well streptavidin-HRP (1:1000) was added for 1 h at room temperature. Plates were washed before 100 μL/well ABTS substrate was added for 30 min at room temperature. Absorbance (405 nm) of wells was measured in a microtiter plate reader. The effect of serum on the AGP3 ELISA was examined by performing the assay in the presence of 10% serum isolated from healthy BALB/c mice.
A sandwich ELISA was developed in which AGP3 was employed for the capture step and AGP3-biotin used for detection. In FIG. 6, serial dilutions of βG-pPEG in PBS (◯) or 10% mouse serum (□) as well as βG in PBS (Δ) were incubated in a microtiter plate coated with AGP3. Binding of βG-pPEG to the immobilized AGP3 was detected by sequential addition of AGP3-biotin and streptavidin-HRP. Results represent mean values of triplicate determinations. […]

[3] = pH values less than 5.0 or greater than 9.0; 4 h at 37° C., assay at pH 7.0
Procedure: To test the pH stability of βG, enzyme in βG buffer was adjusted to pH values ranging from 3-11 for 4 h at 37° C. before neutralization to pH 7.0 and assay of enzymatic activity.

B1: βG-sPEG: β-glucuronidase modified with sPEG (conjugate, UniProt P05804 1-603, looked up)
Beta-glucuronidase: MLRPVETPTREIKKLDGLWAFSLDRENCGIDQRWWESALQESRAIAVPGSFNDQFADADIRNYAGNVWYQREVFIPKGWAGQRIVLRFDAVTHYGKVWVNNQEVMEHQGGYTPFEADVTPYVIAGKSVRITVCVNNELNWQTIPPGMVITDENGKKKQSYFHDFFNYAGIHRSVMLYTTPNTWVDDITVVTHVAQDCNHASVDWQVVANGDVSVELRDADQQVVATGQGTSGTLQVVNPHLWQPGEGYLYELCVTAKSQTECDIYPLRVGIRSVAVKGEQFLINHKPFYFTGFGRHEDADLRGKGFDNVLMVHDHALMDWIGANSYRTSHYPYAEEMLDWADEHGIVVIDETAAVGFNLSLGIGFEAGNKPKELYSEEAVNGETQQAHLQAIKELIARDKNHPSVVMWSIANEPDTRPQGAREYFAPLAEATRKLDPTRPITCVNVMFCDAHTDTISDLFDVLCLNRYYGWYVQSGDLETAEKVLEKELLAWQEKLHQPIIITEYGVDTLAGLHSMYTDMWSEEYQCAWLDMYHRVFDRVSAVVGEQVWNFADFATSQGILRVGGNKKGIFTRDRKPKSAAFLLQKRWTGMNFGEKPQQGGKQ
modifications: sPEG modified
**Q.** With B1 as the molecule, how does the “original enzymatic activity possessed” value [1] read?
**A.** Its value is 69%.

B2: βG-pPEG: β-glucuronidase modified with pPEG (conjugate, UniProt P05804 1-603, looked up)
Beta-glucuronidase: MLRPVETPTREIKKLDGLWAFSLDRENCGIDQRWWESALQESRAIAVPGSFNDQFADADIRNYAGNVWYQREVFIPKGWAGQRIVLRFDAVTHYGKVWVNNQEVMEHQGGYTPFEADVTPYVIAGKSVRITVCVNNELNWQTIPPGMVITDENGKKKQSYFHDFFNYAGIHRSVMLYTTPNTWVDDITVVTHVAQDCNHASVDWQVVANGDVSVELRDADQQVVATGQGTSGTLQVVNPHLWQPGEGYLYELCVTAKSQTECDIYPLRVGIRSVAVKGEQFLINHKPFYFTGFGRHEDADLRGKGFDNVLMVHDHALMDWIGANSYRTSHYPYAEEMLDWADEHGIVVIDETAAVGFNLSLGIGFEAGNKPKELYSEEAVNGETQQAHLQAIKELIARDKNHPSVVMWSIANEPDTRPQGAREYFAPLAEATRKLDPTRPITCVNVMFCDAHTDTISDLFDVLCLNRYYGWYVQSGDLETAEKVLEKELLAWQEKLHQPIIITEYGVDTLAGLHSMYTDMWSEEYQCAWLDMYHRVFDRVSAVVGEQVWNFADFATSQGILRVGGNKKGIFTRDRKPKSAAFLLQKRWTGMNFGEKPQQGGKQ
modifications: pPEG modified
**Q.** Which “first-order half-life of elimination from the circulation” value [2] does the source give for B2 here?
**A.** Its value is 19.2 h.

B3: Eschericia coli β-glucuronidase (protein, UniProt P05804 1-603, looked up)
Beta-glucuronidase: MLRPVETPTREIKKLDGLWAFSLDRENCGIDQRWWESALQESRAIAVPGSFNDQFADADIRNYAGNVWYQREVFIPKGWAGQRIVLRFDAVTHYGKVWVNNQEVMEHQGGYTPFEADVTPYVIAGKSVRITVCVNNELNWQTIPPGMVITDENGKKKQSYFHDFFNYAGIHRSVMLYTTPNTWVDDITVVTHVAQDCNHASVDWQVVANGDVSVELRDADQQVVATGQGTSGTLQVVNPHLWQPGEGYLYELCVTAKSQTECDIYPLRVGIRSVAVKGEQFLINHKPFYFTGFGRHEDADLRGKGFDNVLMVHDHALMDWIGANSYRTSHYPYAEEMLDWADEHGIVVIDETAAVGFNLSLGIGFEAGNKPKELYSEEAVNGETQQAHLQAIKELIARDKNHPSVVMWSIANEPDTRPQGAREYFAPLAEATRKLDPTRPITCVNVMFCDAHTDTISDLFDVLCLNRYYGWYVQSGDLETAEKVLEKELLAWQEKLHQPIIITEYGVDTLAGLHSMYTDMWSEEYQCAWLDMYHRVFDRVSAVVGEQVWNFADFATSQGILRVGGNKKGIFTRDRKPKSAAFLLQKRWTGMNFGEKPQQGGKQ
notes: recombinant Eschericia coli-derived β-glucuronidase
**Q.** What does the source list for B3?
**A.** signal in AGP3 sandwich ELISA (immobilized AGP3): lack of signal; pH stability of enzymatic activity [3]: irreversibly deactivated
